Assay results from patent publication US20120328599A1.

What was measured:
[1] = target: wt-FGFR1 kinase domain (aa 458-765) (human) (UniProt P11362)
[2] = target: FGFR1-RE kinase domain (R577E mutant, aa 458-765) (human) (UniProt P11362)

Substance | in vitro trans phosphorylation of purified kinase domains with ATP and Mg2+, native gel [1] [min] | in vitro trans phosphorylation of purified kinase domains with ATP and Mg2+, native gel [2] [min]
wt-FGFR1 kinase domain (aa 458-765) (from UniProt P11362) (enzyme) | < 10 | –
FGFR1-RE kinase domain (R577E mutant, aa 458-765) (from UniProt P11362) (enzyme) | – | < 30
